# Measurements taken from the supplement of paper PMC7125110.
# ± gives the standard error. For some of these results: Fewer inactive variants are shown than the library holds.
# B1: glmS ribozyme (parent)
# chain: AUAAAAGCGCCAGAACUACAGAAAUGUAGUUGACGAGGAGGAGGUUUAUCGAAUUUUCGGCGGAUGCCUCCAAA
# Columns and labels:
# Conditions in all cases: with glucosamine-6-phosphate
# glucosamine-6-phosphate [1] = variants of: B1; experiment: kcat; higher = faster cleavage; RNA array
# Method in brief: (§1)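 Tiles of sequenced MiSeq chips were imaged over ~14 h at 37 °C. On them, barcoded ribozyme variants had been transcribed in situ by E. coli RNA polymerase and were tracked via a hybridised Cy3 probe while glucosamine-6-phosphate (40 μM to 10 mM) in HEPES/KCl/Mg(OAc)2 buffer flowed in. Per-tile medians, normalised to baseline and to non-cleaving reference variants, were fit to one- or two-exponential decays for kobs, and weighted Michaelis–Menten fits gave kcat and KM.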
# glucosamine-6-phosphate [2] = variants of: B1; experiment: KM; higher = weaker cofactor use; RNA array
# Method in brief: as §1
# glucosamine-6-phosphate [3] = variants of: B1; experiment: self-cleavage kobs at 160 uM GlcN6P; higher = faster cleavage; RNA array
# Method in brief: as §1
# glucosamine-6-phosphate [4] = variants of: B1; experiment: self-cleavage kobs at 640 uM GlcN6P; higher = faster cleavage; RNA array
# Method in brief: as §1
# glucosamine-6-phosphate [5] = variants of: B1; experiment: self-cleavage kobs at 2500 uM GlcN6P; higher = faster cleavage; RNA array
# Method in brief: as §1
# glucosamine-6-phosphate [6] = variants of: B1; experiment: self-cleavage kobs at 10000 uM GlcN6P; higher = faster cleavage; RNA array
# Method in brief: as §1
# glucosamine-6-phosphate [7] = variants of: B1; experiment: self-cleavage kobs at 40 uM GlcN6P; higher = faster cleavage; RNA array
# Method in brief: as §1
Variant,kcat (glucosamine-6-phosphate [1]),KM (glucosamine-6-phosphate [2]),self-cleavage kobs at 160 uM GlcN6P (glucosamine-6-phosphate [3]),self-cleavage kobs at 640 uM GlcN6P (glucosamine-6-phosphate [4]),self-cleavage kobs at 2500 uM GlcN6P (glucosamine-6-phosphate [5]),self-cleavage kobs at 10000 uM GlcN6P (glucosamine-6-phosphate [6]),self-cleavage kobs at 40 uM GlcN6P (glucosamine-6-phosphate [7])
A12U A42U,0.000531 ± 7.4e-05 s⁻¹,1240 ± 330 µM,5.09e-05 ± 7.4e-06 s⁻¹,0.000198 ± 1.9e-05 s⁻¹,0.000402 ± 3.2e-05 s⁻¹,0.000411 ± 4.6e-05 s⁻¹,
G9A A42G,1.5e-05 ± 2.2e-06 s⁻¹,,,,,,< 1e-05 s⁻¹
C58A C61G,1.62e-05 ± 5.8e-06 s⁻¹,,,,,,
A48G C71G,1.72e-05 ± 7.5e-06 s⁻¹,,,,,,
C34U G51A,5.64e-05 ± 4.4e-06 s⁻¹,2710 ± 750 µM,,,,4.45e-05 ± 8.4e-06 s⁻¹,
U47C C58G G59A C61U C71A,1.36e-05 ± 3.4e-06 s⁻¹,,,,,,
A15G C68G,0.000113 ± 3e-06 s⁻¹,367 ± 35 µM,3.48e-05 ± 1.2e-05 s⁻¹,7.26e-05 ± 1.2e-05 s⁻¹,9.45e-05 ± 1.6e-05 s⁻¹,0.000113 ± 1.7e-05 s⁻¹,
C10G A14G G32C G37A C67G,2.2e-05 ± 6.4e-06 s⁻¹,,,,,,
U31C A48U,6.21e-05 ± 6.5e-06 s⁻¹,2780 ± 1100 µM,< 1e-05 s⁻¹,,,4.85e-05 ± 9.7e-06 s⁻¹,< 1e-05 s⁻¹
A12C C58G,0.0002 ± 2.6e-05 s⁻¹,1730 ± 640 µM,,6.55e-05 ± 1.8e-05 s⁻¹,0.000106 ± 1.8e-05 s⁻¹,0.000177 ± 2.2e-05 s⁻¹,
C8U C34U G35U C70A,< 1e-05 s⁻¹,,,,,,< 1e-05 s⁻¹
C34G C67G,4.36e-05 ± 2.1e-05 s⁻¹,,,,4.65e-05 ± 1.9e-05 s⁻¹,,
U49G G59A,< 1e-05 s⁻¹,,< 1e-05 s⁻¹,,,,< 1e-05 s⁻¹
G29U G43A,< 1e-05 s⁻¹,,< 1e-05 s⁻¹,,,,< 1e-05 s⁻¹
C16U C34A C50G U56C,1.31e-05 ± 1.9e-06 s⁻¹,,,,,,
A33C C61A,< 1e-05 s⁻¹,,,,,< 1e-05 s⁻¹,
A53G G66C,0.000985 ± 5.6e-05 s⁻¹,1230 ± 190 µM,0.000121 ± 5e-05 s⁻¹,,0.000619 ± 0.00014 s⁻¹,0.000909 ± 0.00017 s⁻¹,
G59C U69G,1.85e-05 ± 5.2e-06 s⁻¹,,,,,,< 1e-05 s⁻¹
U47G U57A,0.000141 ± 1.3e-05 s⁻¹,1670 ± 420 µM,,4.42e-05 ± 1.5e-05 s⁻¹,7.57e-05 ± 2.1e-05 s⁻¹,0.000125 ± 2.4e-05 s⁻¹,
U31C A42U,1.58e-05 ± 4.1e-06 s⁻¹,,< 1e-05 s⁻¹,,,,< 1e-05 s⁻¹
C11U C68U,0.000418 ± 5.2e-05 s⁻¹,1070 ± 290 µM,6.59e-05 ± 1.1e-05 s⁻¹,0.000135 ± 1.7e-05 s⁻¹,0.000329 ± 3.1e-05 s⁻¹,0.00036 ± 3.9e-05 s⁻¹,
A12U G41U,0.0013 ± 0.00058 s⁻¹,,0.00041 ± 5.1e-05 s⁻¹,0.000814 ± 8.1e-05 s⁻¹,0.00212 ± 0.00022 s⁻¹,,0.000239 ± 2.1e-05 s⁻¹
